In patent US20090142377A1:

Molecular target: dH5-II (cdH5-0 heat-cycled at pH 2, back to pH 7) (influenza A virus H5N1 strain A/Vietnam/1203/04), Q8QPL1
Assay: ELISA, coated H5 form, tPA series with excess e-amino caproic acid
Settings: remark: other sources report otherwise

B1: tissue type plasminogen activator (tPA; Actilyse, Boehringer-Ingelheim), P00750 36-562 (enzyme)
chain: SYQVICRDEKTQMIYQQHQSWLRPVLRSNRVEYCWCNSGRAQCHSVPVKSCSEPRCFNGGTCQQALYFSDFVCQCPEGFAGKCCEIDTRATCYEDQGISYRGTWSTAESGAECTNWNSSALAQKPYSGRRPDAIRLGLGNHNYCRNPDRDSKPWCYVFKAGKYSSEFCSTPACSEGNSDCYFGNGSAYRGTHSLTESGASCLPWNSMILIGKVYTAQNPSAQALGLGKHNYCRNPDGDAKPWCHVLKNRRLTWEYCDVPSCSTCGLRQYSQPQFRIKGGLFADIASHPWQAAIFAKHRRSPGERFLCGGILISSCWILSAAHCFQERFPPHHLTVILGRTYRVVPGEEEQKFEVEKYIVHKEFDDDTYDNDIALLQLKSDSSRCAQESSVVRTVCLPPADLQLPDWTECELSGYGKHEALSPFYSERLKEAHVRLYPSSRCTSQHLLNRTVTDNMLCAGDTRSGGPQANLHDACQGDSGGPLVCLNDGRMTLVGIISWGLGCGQKDVPGVYTKVTNYLDWIRDNMRP
  Bmax: 0.07
  Kd: 19 nM
